Laboratory results: paper PMC11395016, “The Ubiquitination of Arrestin3 within the Nucleus Triggers the Nuclear Export of Mdm2, Which, in Turn, Mediates the Ubiquitination of GRK2 in the Cytosol” (International Journal of Molecular Sciences, 2024)

Target: T1, FLAG-Mdm2 (UniProt Q00987 1-491)
T1 construct: Mdm2, E3 ubiquitin ligase; source: HEK-293, transfected, in nuclear and cytoplasmic fractions
Assay: co-IP; HEK-293 cells transfected with D2R, GRK2 and FLAG-Mdm2; vehicle or 10 μM dopamine for 2 min; nuclear and cytoplasmic fractions each immunoprecipitated with FLAG beads; blot for GRK2
Conditions: partners not purified

T1 sequence (Q00987 whole entry): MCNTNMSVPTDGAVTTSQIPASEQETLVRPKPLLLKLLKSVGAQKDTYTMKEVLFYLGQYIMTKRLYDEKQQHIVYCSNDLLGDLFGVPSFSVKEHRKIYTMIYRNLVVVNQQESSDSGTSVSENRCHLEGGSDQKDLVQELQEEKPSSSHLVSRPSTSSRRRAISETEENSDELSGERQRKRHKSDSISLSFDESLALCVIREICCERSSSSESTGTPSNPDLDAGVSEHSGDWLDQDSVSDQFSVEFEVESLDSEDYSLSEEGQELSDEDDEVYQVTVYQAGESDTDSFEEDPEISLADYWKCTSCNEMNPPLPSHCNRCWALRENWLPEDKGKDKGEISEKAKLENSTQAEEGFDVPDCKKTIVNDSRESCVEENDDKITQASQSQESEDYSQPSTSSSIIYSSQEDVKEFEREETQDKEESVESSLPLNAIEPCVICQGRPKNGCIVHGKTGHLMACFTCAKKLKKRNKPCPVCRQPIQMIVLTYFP

B1: GRK2 (enzyme, UniProt P25098 1-689, looked up)
chain: MADLEAVLADVSYLMAMEKSKATPAARASKKILLPEPSIRSVMQKYLEDRGEVTFEKIFSQKLGYLLFRDFCLNHLEEARPLVEFYEEIKKYEKLETEEERVARSREIFDSYIMKELLACSHPFSKSATEHVQGHLGKKQVPPDLFQPYIEEICQNLRGDVFQKFIESDKFTRFCQWKNVELNIHLTMNDFSVHRIIGRGGFGEVYGCRKADTGKMYAMKCLDKKRIKMKQGETLALNERIMLSLVSTGDCPFIVCMSYAFHTPDKLSFILDLMNGGDLHYHLSQHGVFSEADMRFYAAEIILGLEHMHNRFVVYRDLKPANILLDEHGHVRISDLGLACDFSKKKPHASVGTHGYMAPEVLQKGVAYDSSADWFSLGCMLFKLLRGHSPFRQHKTKDKHEIDRMTLTMAVELPDSFSPELRSLLEGLLQRDVNRRLGCLGRGAQEVKESPFFRSLDWQMVFLQKYPPPLIPPRGEVNAADAFDIGSFDEEDTKGIKLLDSDQELYRNFPLTISERWQQEVAETVFDTINAETDRLEARKKAKNKQLGHEEDYALGKDCIMHGYMSKMGNPFLTQWQRRYFYLFPNRLEWRGEGEAPQSLLTMEEIQSVEETQIKERKCLLLKIRGGKQFILQCDSDPELVQWKKELRDAYREAQQLVQRVPKMKNKPRSPVVELSKVPLVQRGSANGL
notes: GPCR kinase 2 (GRK2), plasmid without a named tag; detected with antibodies against GRK2; also called GPCR kinase 2; source: HEK-293, transfected, in nuclear and cytoplasmic fractions
ratio of band intensities in the blot, DA(+)/CF group against the DA(−)/CF group (1.0): 2.4
